Source: publication doi:10.1101/2022.01.24.477625 (bioRxiv, 2022)

B1: CV27 IgG (antibody, V domains shown)
VH: QVQLVESGGGVVQPGRSLRLSCAASGFTFSSYAMHWVRQAPGKGLEWVALISYDGSNKYYADSVKGRFTISRDNSKNTLYLQMNSLRAEDTAVYYCARSFGGSYYYGMDVWGQGTTVTVSS
VL: QSALTQPASVSGSPGQSITISCTGTSSDVGGYNYVSWYQQHPGKAPKLMIYDVSNRPSGVSNRFSGSKSGNTASLTISGLQAEDEADYYCSSYTSSSTPYVFGTGTKVTVL
B2: CV27 FAb (Fab, V domains shown)
VH: B1 VH
VL: B1 VL

Target: SARS-CoV-2 spike protein (FL-GCN4-Avi-His, biotinylated) (SARS-CoV-2, Wuhan-Hu-1, UniProt P0DTC2, stabilised, biotin on the Avi tag)
Test: BLI

Binder	binding result
B1	binds
B2	binds
